The target of data set [1] is T1, MBD-Halo-AF660 (Homo sapiens, UniProt Q9UIS9 1-77).
T1 sequence: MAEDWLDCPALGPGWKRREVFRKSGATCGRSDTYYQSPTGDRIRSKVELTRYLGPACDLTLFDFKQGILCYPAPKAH
Description: single-molecule TIRF.

The target in data set [2] is T1, MBD-Halo-AF660. Description: single-molecule TIRF. This is another data set of the same source.
The target of data set [3] is T1, MBD-Halo-AF660. Description: single-molecule TIRF. The source holds these as a separate data set.
Data set [4] concerns the target T1, MBD-Halo-AF660. Description: single-molecule TIRF. The source holds these as a separate data set.
The target of data set [5] is T1, MBD-Halo-AF660. Description: single-molecule TIRF. This is another data set of the same source.
In data set [6] the target is T1, MBD-Halo-AF660. Description: single-molecule TIRF. The source holds these as a separate data set.
For data set [7], the target named is T1, MBD-Halo-AF660. Description: single-molecule TIRF. The source holds these as a separate data set.
For data set [8], the target named is T2, MBD-Halo (MBD1 MBD-GGGSG-HaloTag) (Homo sapiens, UniProt Q9UIS9 1-77).
T2 sequence: T1 sequence
Description: EMSA. In general terms: Mobility shift assays separate free from complexed probe on a gel.

For data set [9], the target named is T1, MBD-Halo-AF660. Description: EMSA.
Data set [10] addresses T1, MBD-Halo-AF660. Description: single-molecule TIRF. The source holds these as a separate data set.
Data set [11] concerns the target T1, MBD-Halo-AF660. Description: single-molecule TIRF. This is another data set of the same source.
Data set [12] has as its target T1, MBD-Halo-AF660. Description: single-molecule TIRF. The source holds these as a separate data set.
Data set [13] addresses T1, MBD-Halo-AF660. Description: single-molecule TIRF. This is another data set of the same source.
Data set [14] concerns the target T1, MBD-Halo-AF660. Description: single-molecule TIRF. The source holds these as a separate data set.
The target in data set [15] is T1, MBD-Halo-AF660. Description: single-molecule TIRF. The source holds these as a separate data set.
Data set [16] concerns the target T1, MBD-Halo-AF660. Description: single-molecule TIRF. The source holds these as a separate data set.

Regarding ATAATTAATAGCATCAGCAGGAAGAC (ssDNA) [CPO alone (NTC)], in the data set with MBD-Halo-AF660 [1], the binding result is “no binding”.

B1: SM single-molecule (M7-A39m-CPO) (dsDNA)
DNA 1: GTCTTCCTGCTGATGCAATCCGCTAGGTCGCGAGTCTCCGCCGCGAGAGGGCCGG
DNA 2: CCGGCCCTCTCGCGGCGGAGACTCGCGACCTAGCGGATT
DNA 3: ATAATTAATAGCATCAGCAGGAAGAC
modifications: 5mC strand 1: 21,29,31,39,42,44,53; strand 2: 2,11,13,16,24,26,34
Consider B1, for which the binding result with MBD-Halo-AF660 [2] is “binds”.

B2: M4a-CP (structured_DNA)
DNA 1: B1 DNA 1
DNA 2: GCATCAGCAGGAAGAC
modifications: 5mC strand 1: 29,31,42,44
For the molecule B2, the binding result with MBD-Halo-AF660 [3] was “binds”.

B3: M7-CP (structured_DNA)
DNA 1: B1 DNA 1
DNA 2: GCATCAGCAGGAAGAC
modifications: 5mC strand 1: 21,29,31,39,42,44,53
In the case of B3, in the data set with MBD-Halo-AF660 [4], the binding result is recorded as “binds”.

B4: M7-A39m-CP (dsDNA)
DNA 1: B1 DNA 1
DNA 2: B1 DNA 2
DNA 3: GCATCAGCAGGAAGAC
modifications: 5mC strand 1: 21,29,31,39,42,44,53; strand 2: 2,11,13,16,24,26,34
With B4, the binding result with MBD-Halo-AF660 [5] is reported as “binds”.

B5: M1b-A39m-CP (dsDNA)
DNA 1: B1 DNA 1
DNA 2: B1 DNA 2
DNA 3: GCATCAGCAGGAAGAC
modifications: 5mC strand 1: 53; strand 2: 2,11,13,16,24,26,34
Regarding B5, the binding result with MBD-Halo-AF660 [6] was “no binding”.

B6: M2c-A39m-CP (dsDNA)
DNA 1: B1 DNA 1
DNA 2: B1 DNA 2
DNA 3: GCATCAGCAGGAAGAC
modifications: 5mC strand 1: 42,53; strand 2: 2,11,13,16,24,26,34
With B6, the binding result with MBD-Halo-AF660 [6] is “no binding”.

B7: M7-A39-CP (dsDNA)
DNA 1: B1 DNA 1
DNA 2: B1 DNA 2
DNA 3: GCATCAGCAGGAAGAC
modifications: 5mC strand 1: 21,29,31,39,42,44,53
As for B7, the binding result with MBD-Halo-AF660 [6] was “no binding”.

B8: M0-CP (structured_DNA)
DNA 1: B1 DNA 1
DNA 2: GCATCAGCAGGAAGAC
On to B8, for which the binding result in the data set with MBD-Halo-AF660 [6] was “no binding”.

B9: M7-A39O-CP (mixed)
DNA 1: B1 DNA 1
DNA 2: CTTATCTGTTCCGGCCCTCTCGCGGCGGAGACTCGCGACCTAGCGGATT
DNA 3: GCATCAGCAGGAAGAC
modifications: 5mC strand 1: 21,29,31,39,42,44,53
Regarding B9, the binding result with MBD-Halo-AF660 [6] was “no binding”.

B10: M7-A17O-CP (mixed)
DNA 1: B1 DNA 1
DNA 2: CTTATCTGTTTCGCGACCTAGCGGATT
DNA 3: GCATCAGCAGGAAGAC
modifications: 5mC strand 1: 21,29,31,39,42,44,53
For B10, the binding result in the data set with MBD-Halo-AF660 [7] is recorded as “binds”.

B11: SM 55 bp (M7/M7_rev) (dsDNA)
DNA 1: B1 DNA 1
DNA 2: CCGGCCCTCTCGCGGCGGAGACTCGCGACCTAGCGGATTGCATCAGCAGGAAGAC
modifications: 5mC strand 1: 21,29,31,39,42,44,53; strand 2: 2,11,13,16,24,26,34
Take B11: the binding result (in data set [8]; in the data set with MBD-Halo-AF660 [9]) was “binds” in each case.

B12: M4a-A17O-CP (mixed)
DNA 1: B1 DNA 1
DNA 2: CTTATCTGTTTCGCGACCTAGCGGATT
DNA 3: GCATCAGCAGGAAGAC
modifications: 5mC strand 1: 29,31,42,44
Consider B12, for which the binding result with MBD-Halo-AF660 [10] is on record as “binds”.

B13: M4a-CPO (structured_DNA)
DNA 1: B1 DNA 1
DNA 2: ATAATTAATAGCATCAGCAGGAAGAC
modifications: 5mC strand 1: 29,31,42,44
B13: in the data set with MBD-Halo-AF660 [11], the binding result is recorded as “binds”.

B14: M4a-A39m-CP (dsDNA)
DNA 1: B1 DNA 1
DNA 2: B1 DNA 2
DNA 3: GCATCAGCAGGAAGAC
modifications: 5mC strand 1: 29,31,42,44; strand 2: 2,11,13,16,24,26,34
With B14, in the data set with MBD-Halo-AF660 [12], the binding result is given as “binds”.

B15: M7-CPO (structured_DNA)
DNA 1: B1 DNA 1
DNA 2: ATAATTAATAGCATCAGCAGGAAGAC
modifications: 5mC strand 1: 21,29,31,39,42,44,53
B15: in the data set with MBD-Halo-AF660 [13], the binding result is listed as “binds”.

B16: M3a-A39m-CP (dsDNA)
DNA 1: B1 DNA 1
DNA 2: B1 DNA 2
DNA 3: GCATCAGCAGGAAGAC
modifications: 5mC strand 1: 39,42,44; strand 2: 2,11,13,16,24,26,34
For B16, the binding result in the data set with MBD-Halo-AF660 [14] is given as “binds”.

B17: M2a-A39m-CP (dsDNA)
DNA 1: B1 DNA 1
DNA 2: B1 DNA 2
DNA 3: GCATCAGCAGGAAGAC
modifications: 5mC strand 1: 29,31; strand 2: 2,11,13,16,24,26,34
Take B17: the binding result in the data set with MBD-Halo-AF660 [15] is “binds”.

B18: M7-A17O-CPO (mixed)
DNA 1: B1 DNA 1
DNA 2: CTTATCTGTTTCGCGACCTAGCGGATT
DNA 3: ATAATTAATAGCATCAGCAGGAAGAC
modifications: 5mC strand 1: 21,29,31,39,42,44,53
On to B18, for which the binding result in the data set with MBD-Halo-AF660 [16] is reported as “binds”.

The values above are taken from PMC11463468.
